Laboratory results: article PMC7728349, “Exploring the Interaction between the SWI/SNF Chromatin Remodeling Complex and the Zinc Finger Factor CTCF” (International Journal of Molecular Sciences, 2020)
Entries after “also recorded” stand apart in the source; their conditions may differ. Values belong to the molecule of their own block, whether it stands above or below them.

Legend:
[1] = molecular target: T1, CTCF zinc finger domains 4–8 (residues 348–494), MBP-fused (Homo sapiens, UniProt P49711); test: Biolayer interferometry (BLI), immobilised BRK-BRG1 vs MBP-fused CTCF zinc fingers 4–8; assay type: binding
T1 construct: and 4–8 (residues 348–494) in a bacterial expression system; made in house; host or cells: E. coli BL21
Protocol: (§1) 4.8. Recombinant CTCF Zinc Finger Domains 1–11 and 4–8 Expression and Purification
(§2) The plasmids CTCF-ZF1-11-pMalC2G and CTF-ZF4-8-pMalC2G, obtained as previously reported, were used to transform E. coli BL21 host strain. Transformed colonies were inoculated in LB 0.2% glucose medium and grown a 37 °C, until the culture reached the optical density of 0.6 nm at 600 nm (OD600). At this point of growth, 200 µM ZnSO4 was added to the culture and the expression of the protein was induced by using IPTG 0.3 mM. When the culture reached 0.9 OD600, bacterial cells were harvested by centrifugation. Pellets were resuspended in PBS (pH 7.4) and lysed by sonication on ice. Lysates were centrifuged for 30 min at 27.500 relative centrifugal force and the supernatants containing the expressed proteins were loaded on amylose resin (New England Biolabs, Milan, Italy), according to the manufacturer’s protocol, and incubated overnight under rotation. Following washes with 1X PBS, the purified proteins MBP-CTF-ZF4-8 and MBP-CTCF-ZF1-11 were obtained adding maltose elution buffer (10 mM maltose, 1X PBS). Then, the affinity-purified proteins were loaded onto an HiLoad 26/60 Superdex 75 gel filtration chromatography column (GE Healthcare, Milan, Italy) equilibrated and eluted with PBS. The purified products were finally concentrated using a Amicon Ultra Centrifugal Filter (Merck).
4.9. […]

[2] = molecular target: T2, CTCF zinc finger domains 1–11 (residues 263–582), MBP-fused (Homo sapiens, UniProt P49711); test: Biolayer interferometry (BLI), immobilised BRK-BRG1 vs MBP-fused CTCF zinc fingers 1–11; assay type: binding
T2 construct: CTCF zinc finger domains 1–11 (residues 263–582) and 4–8 (residues 348–494); made in house; host or cells: E. coli BL21
Protocol: as §1, §2
4.9. […]

[3] = Precipitation of MBP-fused CTCF domains 1–11 in PBS; assay type: physicochemical; conditions: concentrations higher than 3.0 µM
Protocol: as §2, with “(Merck). […]” for “(Merck).”

[4] = test system: BRK-BRG1 (BRK domain of human BRG1, region 612–656); test: BLI detection limit, MBP-fused CTCF zinc finger domains on immobilised BRK-BRG1; assay type: binding; conditions: PBS
Protocol: 4.9. Binding of BRK-BRG1 to Recombinant CTFC Multiple Zinc Finger Domains by Biolayer Interferometry (BLI)
BLI measurements were performed using a BLItz system and ARG2 commercial biosensors (ForteBio, CA, United States), following the manufacturer’s instructions. A reduced volume sample cuvette (4 µL) was used for all the experiments. Assays were performed by immobilizing the synthetic BRK-BRG1 domain on the surface of the sensor chip and exposing it to solutions of recombinant CTFC domain 1–11 or CTCF domains 4–8, both fused to MBP, dissolved in PBS at increasing concentrations. After pre-hydration for 10 min in PBS buffer, the immobilization was achieved by pre-activating the sensor surface for 180 s with EDC/NHS, both in water, at 0.4 M and 0.1 M, respectively. Then, the sensor chip was exposed for 300 s to a solution of BRK-BRG1 at 200 µg/mL in sodium acetate pH 4.5. After extensive washing with buffer, the sensor chip surface was deactivated using 1 M ethanolamine in water pH 8.5 for 180 s. Binding assays were performed after exposure for 30 s to PBS (running buffer) to acquire the initial baseline. Next, the derivatized chip was exposed to the CTFC protein solutions in PBS for 120 s, followed by PBS washes (120 s). Then, the sensor chip was fully regenerated, restoring the baseline, by treatment with a solution of NaOH 5 mM for 10 s and a further wash with PBS. […]

[5] = molecular target: T3, MBP-fused CTCF zinc finger domains 1–11 (residues 263–582) (human, UniProt P49711 263-582); test: BLI; synthetic BRK-BRG1 immobilised on ARG2 biosensor by EDC/NHS (BLItz); MBP-fused CTCF zinc finger domains as analytes in PBS; free MBP signal subtracted; KD from plateau shifts, one binding site hyperbola; conditions: both partners purified
T3 construct: CTCF zinc finger domains 1-11, residues 263-582; also called MBP-CTCF-ZF1-11; CTCF domains 1–11; source: E. coli BL21, purified (amylose resin, Superdex 75 gel filtration)
T3 sequence (looked up): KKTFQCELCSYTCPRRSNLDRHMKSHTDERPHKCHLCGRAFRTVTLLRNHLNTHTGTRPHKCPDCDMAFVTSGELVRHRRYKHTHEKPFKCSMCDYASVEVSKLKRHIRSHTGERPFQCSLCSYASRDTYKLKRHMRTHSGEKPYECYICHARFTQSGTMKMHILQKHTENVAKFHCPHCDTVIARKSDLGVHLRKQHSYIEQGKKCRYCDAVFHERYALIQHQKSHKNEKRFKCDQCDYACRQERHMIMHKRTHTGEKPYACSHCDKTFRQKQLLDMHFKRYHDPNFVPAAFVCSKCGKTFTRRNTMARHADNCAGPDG

[6] = molecular target: T4, MBP-fused CTCF zinc finger domains 4–8 (residues 348–494) (human, UniProt P49711 348-494); test: as above; conditions: both partners purified
T4 construct: CTCF zinc finger domains 4-8, residues 348-494; also called MBP-CTF-ZF4-8; CTCF domains 4–8; source: E. coli BL21, purified (amylose resin, Superdex 75 gel filtration)
T4 sequence (looked up): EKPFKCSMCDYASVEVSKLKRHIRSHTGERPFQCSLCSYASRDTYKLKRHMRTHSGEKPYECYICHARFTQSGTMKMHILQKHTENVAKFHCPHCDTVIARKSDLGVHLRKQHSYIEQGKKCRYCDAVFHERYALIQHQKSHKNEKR

Molecule: Ac-MSDLPVKVIHVESGKILTGTDAPKAGQLEAWLEMNPGYEVAPRSD-NH2 [BRK-BRG1]
- direct binding to CTCF zinc fingers 4–8, result in words [1]: direct binding; also recorded: the region encompassing domains from 4 to 8 strongly contributes to this interaction; also recorded: binds the zinc finger motifs 4–8 of CTCF
- direct binding to CTCF zinc finger region 1–11, result in words [2]: binds the CTCF region including the eleven zinc finger domains

B1: MBP-fused CTFC domains 1–11: recombinant maltose-binding protein (MBP)-fused CTCF zinc finger domains 1–11 (residues 263–582) (protein)
chain: T3 sequence (looked up)
modifications: left off: MBP, end not stated, kept
- precipitation of the protein [3]: the protein underwent precipitation
- BLI shift at low concentration, domains 1–11 ([4]; solutions at concentrations below 0.5 µM): No shifts were measured

B2: MBP-fused CTFC domain 4–8: recombinant maltose-binding protein (MBP)-fused CTCF zinc finger domains 4–8 (residues 348–494) (protein)
chain: T4 sequence (looked up)
modifications: left off: MBP, end not stated, kept
- BLI shift at low concentration, domains 4–8 ([4]; solutions at concentrations below 10 nM): No shifts were measured

- Kd [5]: ~2.3 µM
- Kd [6]: ~0.095 µM
B3: BRK domain of BRG1, region 612–656, synthetic polypeptide (peptide)
chain: Ac-MSDLPVKVIHVESGKILTGTDAPKAGQLEAWLEMNPGYEVAPRSD-NH2
notes: BRK domain of human BRG1, region 612-656; Coupled to the BLI sensor by EDC/NHS chemistry; also called BRK-BRG1; BRK-BRG1 domain; source: synthetic peptide (solid phase synthesis, purified by RP-HPLC)
